US20240279312A1 (Hoffmann-La Roche, published 2024)
Several values for one entry are separate records, joined by “and”; a condition that tells them apart may be missing. Identical values can stand only once.

What was measured:
[1] = target: recombinant von Willebrand Factor A1 domain (amino acids 1277-1453 of human vWF) (human) (UniProt P04275); test: fluorescence anisotropy; particle-bound dimeric polypeptide titrated against 150 nM vWF A1-AlexaFluor 488
[2] = target: recombinant von Willebrand Factor A1 domain (amino acids 1277-1453 of human vWF) (human) (UniProt P04275); test: SPR (Biacore); vWF A1 domain on CM5 chip, soluble polypeptide; Kd from on- and off-rates; SPR (Biacore), vWF A1 domain on CM5 chip
[3] = target: T1, human von Willebrand Factor of human blood plasma (human, UniProt P04275 764-2813); test: sandwich ELISA: polypeptide captured on anti-CD42b, plasma added, detection with polyclonal rabbit anti-human vWF-HRP
T1 construct: mature; Native plasma protein in ELISA samples; also called vWF; plasma vWF
From the text: FIG. 4A is a cartoon of the enzyme-linked immunosorbent assay (ELISA) used to generate the data in FIG. 4B-4D. A solid support was coated with anti-glycoprotein Ibα antibody (anti-CD42b), which was used to immobilize recombinant polypeptide comprising a modified extracellular domain of platelet glycoprotein Ibα (CD42b; GPIbα; GP1b constructs). The solid support was then contacted with human blood plasma, von Willebrand Factor calibrators, or von Willebrand Factor controls. The solid support was then contacted with a polyclonal rabbit anti-human von Willebrand Factor antibody to which horseradish peroxidase (HRP) was conjugated. The composition was then contacted with a substrate capable of being converted into a product by HRP with a strong absorbance at 450 nm, and absorbance was measured.
Enzyme immunosorbent assays (ELISA) were used to determine that recombinant polypeptides comprising the G233T (SEQ ID NO: 21), D235V (SEQ ID NO: 30), and K237V (SEQ ID NO: 31) mutations are capable of detecting qualitative differences in vWF binding affinity. […] Briefly, the wells of a multi-well plate were coated with an anti-CD42b antibody, which specifically binds the modified extracellular domain of GPIbα of the recombinant polypeptides and was used to indirectly cross-link the recombinant polypeptides to the multi-well plate (i.e., the solid support). Various control samples, standards, and serial dilutions thereof were added to different wells of the multi-well plate including plasma samples associated with type 1, type 2B, and type 3 von Willebrand Disease, control samples of pooled human blood plasma, control samples of human blood plasma known not to have von Willebrand Disease, a 2× serial dilution of a reference standard of pooled human plasma from no dilution to 16-fold dilution, and goat blood serum as a negative control. […] Bound vWF was quantified by monitoring the conversion of a horseradish peroxidase substrate into product by absorption spectroscopy at 450 nm.

Chain of recombinant von Willebrand Factor A1 domain (amino acids 1277-1453 of human vWF) (human) (P04275 1277-1453 limits assumed, form in doubt): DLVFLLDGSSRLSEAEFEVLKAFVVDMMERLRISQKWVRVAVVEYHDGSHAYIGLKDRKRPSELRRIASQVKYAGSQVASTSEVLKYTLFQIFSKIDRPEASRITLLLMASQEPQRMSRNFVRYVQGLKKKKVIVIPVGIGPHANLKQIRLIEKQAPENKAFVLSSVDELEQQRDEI
T1 sequence (P04275 764-2813 limits assumed): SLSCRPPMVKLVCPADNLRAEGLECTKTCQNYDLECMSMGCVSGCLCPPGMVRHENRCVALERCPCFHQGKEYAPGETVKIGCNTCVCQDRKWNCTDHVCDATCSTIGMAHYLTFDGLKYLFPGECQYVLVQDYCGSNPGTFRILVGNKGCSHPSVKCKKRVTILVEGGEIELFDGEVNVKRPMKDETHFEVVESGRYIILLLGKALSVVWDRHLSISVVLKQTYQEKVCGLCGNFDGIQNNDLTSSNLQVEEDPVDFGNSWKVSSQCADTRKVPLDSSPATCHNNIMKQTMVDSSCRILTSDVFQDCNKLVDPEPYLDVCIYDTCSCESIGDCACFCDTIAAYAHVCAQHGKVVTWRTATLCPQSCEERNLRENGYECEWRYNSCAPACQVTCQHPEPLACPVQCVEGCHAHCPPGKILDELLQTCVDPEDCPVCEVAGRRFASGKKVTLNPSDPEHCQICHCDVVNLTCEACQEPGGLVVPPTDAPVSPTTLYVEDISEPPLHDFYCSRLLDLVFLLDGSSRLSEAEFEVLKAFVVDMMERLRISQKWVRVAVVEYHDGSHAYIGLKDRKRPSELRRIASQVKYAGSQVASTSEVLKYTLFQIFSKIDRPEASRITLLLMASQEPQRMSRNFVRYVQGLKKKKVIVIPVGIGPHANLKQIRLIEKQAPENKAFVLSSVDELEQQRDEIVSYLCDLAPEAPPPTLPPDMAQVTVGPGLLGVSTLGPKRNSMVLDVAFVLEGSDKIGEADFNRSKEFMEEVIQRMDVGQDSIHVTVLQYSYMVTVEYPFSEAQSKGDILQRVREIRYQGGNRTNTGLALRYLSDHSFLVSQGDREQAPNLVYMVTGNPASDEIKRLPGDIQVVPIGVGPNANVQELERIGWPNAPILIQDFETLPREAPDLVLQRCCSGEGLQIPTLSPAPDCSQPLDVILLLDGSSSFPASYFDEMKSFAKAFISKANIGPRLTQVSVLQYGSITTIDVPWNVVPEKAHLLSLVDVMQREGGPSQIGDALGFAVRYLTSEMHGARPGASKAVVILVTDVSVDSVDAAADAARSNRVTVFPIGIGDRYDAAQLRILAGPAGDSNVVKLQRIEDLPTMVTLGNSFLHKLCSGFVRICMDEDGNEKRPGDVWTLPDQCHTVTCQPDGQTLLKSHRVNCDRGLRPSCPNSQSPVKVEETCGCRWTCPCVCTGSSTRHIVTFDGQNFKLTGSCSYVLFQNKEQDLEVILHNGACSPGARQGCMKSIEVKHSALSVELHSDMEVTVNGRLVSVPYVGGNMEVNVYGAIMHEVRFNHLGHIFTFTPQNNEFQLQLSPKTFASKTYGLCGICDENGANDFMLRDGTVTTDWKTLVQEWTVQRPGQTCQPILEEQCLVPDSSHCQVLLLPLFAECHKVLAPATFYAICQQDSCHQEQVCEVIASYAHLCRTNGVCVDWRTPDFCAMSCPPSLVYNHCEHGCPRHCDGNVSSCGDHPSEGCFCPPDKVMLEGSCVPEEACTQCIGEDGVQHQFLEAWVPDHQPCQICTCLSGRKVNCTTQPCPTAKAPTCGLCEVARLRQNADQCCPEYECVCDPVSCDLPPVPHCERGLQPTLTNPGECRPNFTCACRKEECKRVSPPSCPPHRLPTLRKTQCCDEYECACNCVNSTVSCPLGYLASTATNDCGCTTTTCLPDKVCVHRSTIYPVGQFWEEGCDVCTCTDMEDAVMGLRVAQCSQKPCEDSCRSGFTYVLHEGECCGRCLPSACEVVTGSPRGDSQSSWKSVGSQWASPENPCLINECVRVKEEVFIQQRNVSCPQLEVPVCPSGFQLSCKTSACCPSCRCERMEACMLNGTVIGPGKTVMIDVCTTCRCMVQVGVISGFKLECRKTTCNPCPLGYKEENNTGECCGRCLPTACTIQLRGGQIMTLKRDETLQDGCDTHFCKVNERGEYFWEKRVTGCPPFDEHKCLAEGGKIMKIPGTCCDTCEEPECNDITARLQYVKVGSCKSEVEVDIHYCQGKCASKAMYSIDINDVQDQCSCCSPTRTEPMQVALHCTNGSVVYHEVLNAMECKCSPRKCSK

| Molecule | Kd [1] | Kd [2] | binding result [3] |
| --- | --- | --- | --- |
| dimeric polypeptide of SEQ ID NO: 37 (WT): GPIbα extracellular domain without gain- or loss-of-function mutation, murine Fc dimerization domain (Fc fusion) | 1250 nM | – | – |
| dimeric polypeptide of SEQ ID NO: 21: GPIbα extracellular domain with C65S and G233T, murine IgG1 Fc dimerization domain, 8-His tag (Fc fusion, On particles in fluorescence anisotropy, soluble in SPR, captured by anti-CD42b in ELISA; also called G233T mutant; G233T recombinant polypeptide) HPICEVSKVASHLEVNCDKRNLTALPPDLPKDTTILHLSENLLYTFSLATLMPYTRLTQLNLDRSELTKLQVDGTLPVLGTLDLSHNQLQSLPLLGQTLPALTVLDVSFNRLTSLPLGALRGLGELQELYLKGNELKTLPPGLLTPTPKLEKLSLANNNLTELPAGLLNGLENLDTLLLQENSLYTIPKGFFGSHLLPFAFLHGNPWLCNCEILYFRRWLQDNAENVYVWKQTVDVKAMTSNVASVQCDNSDKFPVYKYPGKGCPTLGDEGDTDLYDYYPEEDTEGDKVRVPRDCGCKPCICTVPEVSSVFIFPPKPKDVLTITLTPKVTCVVVDISKDDPEVQFSWFVDDVEVHTAQTQPREEQFNSTFRSVSELPIMHQDWLNGKEFKCRVNSAAFPAPIEKTISKTKGRPKAPQVYTIPPPKEQMAKDKVSLTCMITDFFPEDITVEWQWNGQPAENYKNTQPIMDTDGSYFVYSKLNVQKSNWEAGNTFTCSVLHEGLHNHHTEKSLSHSPGIGHHHHHHHH | 67 nM and < 500 nM | 58 nM | binds |
| dimeric polypeptide of SEQ ID NO: 31: GPIbα extracellular domain with C65S and K237V, murine Fc dimerization domain (Fc fusion, also called K237V mutant) HPICEVSKVASHLEVNCDKRNLTALPPDLPKDTTILHLSENLLYTFSLATLMPYTRLTQLNLDRSELTKLQVDGTLPVLGTLDLSHNQLQSLPLLGQTLPALTVLDVSFNRLTSLPLGALRGLGELQELYLKGNELKTLPPGLLTPTPKLEKLSLANNNLTELPAGLLNGLENLDTLLLQENSLYTIPKGFFGSHLLPFAFLHGNPWLCNCEILYFRRWLQDNAENVYVWKQGVDVVAMTSNVASVQCDNSDKFPVYKYPGKGCPTLGDEGDTDLYDYYPEEDTEGDKVRVPRDCGCKPCICTVPEVSSVFIFPPKPKDVLTITLTPKVTCVVVDISKDDPEVQFSWFVDDVEVHTAQTQPREEQFNSTFRSVSELPIMHQDWLNGKEFKCRVNSAAFPAPIEKTISKTKGRPKAPQVYTIPPPKEQMAKDKVSLTCMITDFFPEDITVEWQWNGQPAENYKNTQPIMDTDGSYFVYSKLNVQKSNWEAGNTFTCSVLHEGLHNHHTEKSLSHSPGIGHHHHHHHH | < 500 nM and 300 nM | – | binds |
| dimeric polypeptide of SEQ ID NO: 30: GPIbα extracellular domain with C65S and D235V, murine Fc dimerization domain (Fc fusion, also called D235V mutant) HPICEVSKVASHLEVNCDKRNLTALPPDLPKDTTILHLSENLLYTFSLATLMPYTRLTQLNLDRSELTKLQVDGTLPVLGTLDLSHNQLQSLPLLGQTLPALTVLDVSFNRLTSLPLGALRGLGELQELYLKGNELKTLPPGLLTPTPKLEKLSLANNNLTELPAGLLNGLENLDTLLLQENSLYTIPKGFFGSHLLPFAFLHGNPWLCNCEILYFRRWLQDNAENVYVWKQGVVVKAMTSNVASVQCDNSDKFPVYKYPGKGCPTLGDEGDTDLYDYYPEEDTEGDKVRVPRDCGCKPCICTVPEVSSVFIFPPKPKDVLTITLTPKVTCVVVDISKDDPEVQFSWFVDDVEVHTAQTQPREEQFNSTFRSVSELPIMHQDWLNGKEFKCRVNSAAFPAPIEKTISKTKGRPKAPQVYTIPPPKEQMAKDKVSLTCMITDFFPEDITVEWQWNGQPAENYKNTQPIMDTDGSYFVYSKLNVQKSNWEAGNTFTCSVLHEGLHNHHTEKSLSHSPGIGHHHHHHHH | < 500 nM and 250 nM | – | binds |
